According to article PMC2879526:
Residue numbers refer to the chain shown, from its start.

T1: THAP zinc finger of hTHAP1 K24A (Homo sapiens, UniProt Q9NVV9 1-81, K24A)
T1 sequence: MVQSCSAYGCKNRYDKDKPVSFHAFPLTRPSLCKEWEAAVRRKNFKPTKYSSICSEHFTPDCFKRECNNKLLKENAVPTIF

T2: THAP zinc finger of hTHAP1 (C62S/C67S) (Homo sapiens, UniProt Q9NVV9 1-81, C62S;C67S)
T2 sequence: T1 sequence with A24K, C62S, C67S

B1: non-specific 16-bp DNA (dsDNA)
DNA 1: CGATTTGAATTTTAAC
DNA 2: GTTAAAATTCAAATCG
B2: rrm1 16-bp (THABS) (dsDNA)
DNA 1: GCTTGTGTGGGCAGCG
DNA 2: CGCTGCCCACACAAGC

How the values were obtained:
[1] = target: T1, THAP zinc finger of hTHAP1 K24A; assay: fluorescence anisotropy
[2] = target: T2, THAP zinc finger of hTHAP1 (C62S/C67S); assay: fluorescence anisotropy

| Binder | binding result [1] | Kd [2] [nM] |
| --- | --- | --- |
| B1 | binds |  |
| B2 |  | 480 ± 60 |
